Consider 5 molecules from article PMC8601423 (PLoS ONE, 2021).

First the molecules themselves.
B1: SARS-CoV-2 RBM 20mer F486-Y505 (on peptide array) (peptide)
peptide: not shown
B2: SARS-CoV-2 RBM peptide S438-K462 with S438-D442 removed (N-terminal truncation, on peptide array) (peptide)
peptide: SKVGGNYNYLYRLFRKSNLK
B3: SARS-CoV-2 RBM peptide E484-Y508 with Q506-Y508 removed (C-terminal truncation, on peptide array) (peptide)
peptide: EGFNCYFPLQSYGFQPTNGVGY
B4: SARS-CoV-2 RBM peptide S438-K462 with S459-K462 removed (C-terminal truncation, on peptide array) (peptide)
peptide: SNNLDSKVGGNYNYLYRLFRK
B5: SARS-CoV-2 RBM peptide E484-Y508 with E484 and G485 removed (N-terminal truncation, on peptide array) (peptide)
peptide: FNCYFPLQSYGFQPTNGVGYQPY

The test deals with human ACE2-Fc (Q18-S740) recombinant protein (human, UniProt Q9BYF1 18-740). Briefly: peptide or protein array. The following applies: both partners purified.
Sequence of human ACE2-Fc (Q18-S740) recombinant protein (Q9BYF1 18-740): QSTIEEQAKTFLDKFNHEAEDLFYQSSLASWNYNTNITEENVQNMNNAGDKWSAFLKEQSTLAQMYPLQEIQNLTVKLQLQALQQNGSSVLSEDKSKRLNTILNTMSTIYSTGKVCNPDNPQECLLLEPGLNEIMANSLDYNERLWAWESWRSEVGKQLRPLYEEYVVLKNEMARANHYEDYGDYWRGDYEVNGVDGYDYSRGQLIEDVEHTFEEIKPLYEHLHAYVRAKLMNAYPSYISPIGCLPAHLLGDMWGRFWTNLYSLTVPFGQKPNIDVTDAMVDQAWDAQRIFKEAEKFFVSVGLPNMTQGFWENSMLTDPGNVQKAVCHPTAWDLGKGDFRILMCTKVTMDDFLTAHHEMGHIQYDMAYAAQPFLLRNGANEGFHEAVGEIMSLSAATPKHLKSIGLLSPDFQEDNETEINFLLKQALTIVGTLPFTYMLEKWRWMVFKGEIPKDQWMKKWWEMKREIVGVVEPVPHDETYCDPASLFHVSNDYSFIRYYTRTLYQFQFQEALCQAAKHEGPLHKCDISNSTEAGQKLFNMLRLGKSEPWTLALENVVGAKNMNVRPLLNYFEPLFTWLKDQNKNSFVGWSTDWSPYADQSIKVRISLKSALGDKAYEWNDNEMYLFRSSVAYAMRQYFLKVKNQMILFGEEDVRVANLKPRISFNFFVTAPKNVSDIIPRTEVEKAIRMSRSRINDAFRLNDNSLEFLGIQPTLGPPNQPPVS
Regarding B1, the binding result is “binds”.
For the molecule B2, the binding result was “binds”.
Turning to B3, the binding result is on record as “binds”.
To B4 belongs “binds”.
On to B5, for which the binding result was “binds”.
